Results published in patent publication US20090291083A1, “BARB4 TARGET, ANTIBODY DESIGNATED BARB4, BARB4 RELATED ANTIBODIES, AND METHODS OF MAKING AND USING SAME” (PATRYS LIMITED, priority 2008, published 2009).

Assays:
[1] = test system: human pancreas carcinoma cell-line BXPC-3; assay: Immunofluorescence, endocytosis of conjugated BARB4; assay type: cell-based; details: 40 μg/ml conjugated antibody, 37° C., 30 minutes after binding
Experimental: Endocytosis was determined for BARB4 on human pancreas carcinoma cell-line BXPC-3. BARB4 antibody (purified) was conjugated with Fluorescent orange 548 reactive (Fluka, Buchs, Switzerland). Conjugated BARB4 antibody at a final concentration of 40 μg/ml was directly given to 1×10^6 cells and incubated for indicated times at 37° C. Cells were harvested, rinsed and resuspended in phosphate buffer saline pH 7,4 (PBS). 100 μl of each cell suspension was fixed on slides. Finally the slides were mounted with Fluorescent Mounting Medium (DakoCytomation, Carpinteria, USA) and analyzed by confocal microscopy. The data is illustrated in FIG. 4.

[2] = test system: Healthy Tissues: Pancreas; assay: Immunohistochemistry (IHC) with biotinylated BARB4 on healthy tissue; assay type: binding, human; details: glandular, positive/negative
Experimental: (§1) Immunohistochemistry with human IgG on human tissue naturally results in high background staining. Accordingly, BARB4 was labeled with biotin to reduce background.
(§2) BARB4 antibody and an unrelated commercial IgG control (Chrompure IgG, Dianova) where labelled with “EZ-Link Maleimide-PEO Solid Phase Biotinylation Kit” from Pierce (Cat-# 21930) and Immunohistochemistry was initiated on different tumor tissue. Parrafin embedded tissue was first deparaffinized by treatment with Xylene 1 for 5 min, Xylene 2 for 5 min, followed by 100% Ethanol 1 for 5 min, 100% Ethanol 2 for 5 min, 70 ml Methanol+500 μl H2O2 for 7 min, 90% Ethanol 1 for 3 min, 90% Ethanol 2 for 3 min, 80% Ethanol 1 for 3 min, 80% Ethanol 2 for 3 min, 70% Ethanol 1 for 3 min, 70% Ethanol 2 for 3 min, and then washed three times with distilled H2O. (1 and 2 mean that the tissues were treated 2 times with the same alcohol, one after the another, in two different tanks.) Tissue was then heated in Citric acid, pH 5,5 in a water-bath at 99.9° C. for 20 min, placed in Tris/NaCl (Tris, 0.6 g/l and NaCl 8.1 g/l, pH 7.4) for 5 min, block with 0.5% BSA in PBS for 60 min, and then washed three times with Tris/NaCl (Tris, 0.6 g/l and NaCl 8.1 g/l, pH 7.4). Primary antibody (150 μl per microscope slide) was added, or a negative control biotinylated isotype matched control human antibody (Chrompure IgG, Dianova, Germany) or a positive controlanti-cytokeratin antibody, and incubated for 30 min in a humidified chamber at 37° C. Tissue was washed three times with Tris/NaCl (Tris, 0.6 g/l and NaCl 8.1 g/l, pH 7.4). Secondary antibody: (150 […]) was subsequently added and incubated for 30 min in a humidified chamber at room temperature (for biotinylated antibodies: NeurtrAvidin 1:100 in PBS), washed three times with Tris/NaCl (Tris, 0.6 g/l and NaCl 8.1 g/l, pH7.4), placed in PBS for 10 min. Tiusse was subsequently incubated with diaminobenzidine (0.05%)-hydrogen peroxide (0.02%) (150 μl per microscope slide) (Sigma, Taufkirchen, München, Germany) for 10 min, washed three times with H2O, washed once with distilled H2O, incubated with hematoxylin/eosin for 5 min, and placed under running tap water 10-15 min. Tissue was then washed again with distilled H2O, and the slides covered with Aquatex (Merck Bioscience).

[3] = test system: Healthy Tissues: Esophagus; assay: as above; assay type: binding, human; details: epithelial, positive/negative
Experimental: as §1, §2

[4] = test system: Healthy Tissues: Colon; assay: as above; assay type: binding, human; details: glandular, positive/negative
Experimental: as §1, §2

[5] = test system: Healthy Tissues: Lung; assay: as above; assay type: binding, human; details: glandular, alveolar, positive/negative
Experimental: as §1, §2

[6] = test system: Healthy Tissues: Breast; assay: as above; assay type: binding, human; details: glandular, positive/negative
Experimental: as §1, §2

[7] = test system: Healthy Tissues: Stomach; assay: as above; assay type: binding, human; details: glandular, positive/negative
Experimental: as §1, §2

[8] = test system: HeLa; assay: FACS analysis of cell surface binding, BARB4 and commercial TAF 15 antibody; details: BARB4 100 ug/ml, TAF 15 antibody 25 μg/ml
Experimental: (§3) To further validate BARB4 target protein TAF 15, BARB4 and a commercial TAF 15 antibody (anti-human TAFII p68, Santa Cruz Biotechnology, sc-81121) were analyzed for binding to BxPC-3, HEK 293, A549 and HeLa cell lines. In brief, cells were trypsinized with cell dissociation solution (Sigma C5789), resuspended in complete medium (RPMI 1640, PAA, E15-039, 10% Fetal bovine serum, PAA, A15-151 and 1% Glutamine, PAA, M11-004) and set on 2×10^5/ml. After 30 minutes on ice, cells were dispersed at 1 ml per FACS-tube and washed once with ice-cold PBS by centrifugation with 500 g and 4° C. Staining was done with BARB4 (100 ug/ml) or the commercial TAF 15 (25 μg/ml) IgG antibodies, control IgGs (IgG lambda, or mouse IgG), or without antibody in 200 μl PBS. Cells were incubated with 25 μg/ml antibody in 100 μl for 30 minutes on ice, then washed with ice cold PBS and secondary antibody (anti mouse IgG-FITC, dianova 115-095-008) was applied at a dilution of 1:50 in 200 μl per tube. After another 30 minutes of incubation in the dark, cells were washed twice with PBS and analyzed by FACS. […] BARB4 target protein TAF 15 validation was then analyzed by immunoprecipitation of MKNcell extracts with BARB4 and subsequent Western blotting with either BARB4 or anti-TAF 15 antibodies (Biomol, A300-308A; or Aviva, ARP30111_T100).

[9] = test system: HEK 293; assay: as above; details: BARB4 100 ug/ml, TAF 15 antibody 25 μg/ml
Experimental: as §3

[10] = test system: malignant melanoma cells (CRL-1424); assay: FACS analysis of tumor cell binding; details: 20 min on ice
Experimental: (§4) To analyze tumor cell binding, pancreas cancer cells (BXPC-3), stomach cancer cells (23132/87), lung carcinoma cells (A549) and malignant melanoma cells (HTB-69 and CRL-1424) were grown to subconfluency in complete medium, detached with Trypsin/EDTA and incubated on ice for 1 h for recreation. Tumor cells were subsequently incubated on ice with BARB4 antibody (diluted in PBS containing 0.01% sodium azide), or human isotype-matched control antibody (Chrompure human IgG, Dianova, Hamburg, Germany) for 20 min on ice. Following incubation, cells were incubated with a FITC-labeled rabbit anti-human IgG antibody (1:50, Dako, Germany) for 20 min on ice, and cells were analyzed by flow cytometry (FACScan; Becton Dickinson, USA).

[11] = test system: malignant melanoma cells (HTB-69); assay: FACS analysis of tumor cell binding; details: 20 min on ice
Experimental: as §4

[12] = test system: stomach cancer cells (23132/87); assay: FACS analysis of tumor cell binding; details: 20 min on ice
Experimental: as §4

B1: BARB4: human IgG antibody produced by hybridoma DSMZ Deposit No. DSM ACC2876; heavy chain SEQ ID NOs:1, 3, 5, 7, light chain SEQ ID NO:9 (antibody, V domains shown)
VH: QVQLVESGGGVVQPGRSLRLSCAASGFRFTTHGMHWVRQAPGKGLEWVAVISYNGRNKYYADYVNGRFTISRDDSRDTVFLQMNSLRPEDTAMYYCAKVRGDGYGDYGYFDYWGHGTLVSVSS
VL: QSALTQPRSVSGSPGQSVTISCTGTYNYVSWYQQHPGKAPKLMIFDVSRRSSGVPDRFSGSKSGNTASLTISGLQAEDEADYYCCSYGGTYLYVFGTGTTVTVLGQ
- endocytosis of antibody by cells (immunofluorescence) [1]: endocytosis
- Barb 4 +/− [2]: 0/2
- Barb 4 +/− [3]: 0/1
- Barb 4 +/− [4]: 0/3
- Barb 4 +/− [5]: 0/3
- Barb 4 +/− [6]: 0/2
- Barb 4 +/− [7]: 0/3
- FACS binding to the cell surface [8]: binding
- FACS binding to the cell surface [9]: binding
- tumor cell binding (FACS) [10]: binds
- tumor cell binding (FACS) [11]: binds
- tumor cell binding (FACS) [12]: binds
